Data published in patent US12077763B2, “RNA-based control of powdery mildew” (Greenlight Biosciences, Inc., priority 2021, dated 2024).

B1: GS3324 (nucleic acid)
sense: CAAACUCGCUCAAUUCUCCGUAUGACUAAUUGUUCUUAUACUUAUCCUGGCGCUUCAAAACCGUCUUUGCACAAUGUGUCUUGUCAACUCUCCCUUUCAUCUCGAACUGCAAUCAUAGGUGGUAAUGGUGCAGGAAAAUCAACGUUAAUAAAACUACUUACUGGCGAGACGGUCCCUACUUCUGGGCGAGUCGAAAAACACCCUAAUUUGCGAAUUGGAUAUAUAAAACAACAUGCACUUGAACAUGUUGAAAUGCAUCUCGAGAAAACCCCAAACCAAUAUCUUCAAUGGCGCUAUGCCAAUGGUGAUGAUCGUGAGGUACAUAUGAAACAGACUCGUAUUUUAUCGGAUGCUGAUAAAGCUCAAAUGGAAAAAUGGAUUGAUAUCGAUGGGAAG
antisense: CUUCCCAUCGAUAUCAAUCCAUUUUUCCAUUUGAGCUUUAUCAGCAUCCGAUAAAAUACGAGUCUGUUUCAUAUGUACCUCACGAUCAUCACCAUUGGCAUAGCGCCAUUGAAGAUAUUGGUUUGGGGUUUUCUCGAGAUGCAUUUCAACAUGUUCAAGUGCAUGUUGUUUUAUAUAUCCAAUUCGCAAAUUAGGGUGUUUUUCGACUCGCCCAGAAGUAGGGACCGUCUCGCCAGUAAGUAGUUUUAUUAACGUUGAUUUUCCUGCACCAUUACCACCUAUGAUUGCAGUUCGAGAUGAAAGGGAGAGUUGACAAGACACAUUGUGCAAAGACGGUUUUGAAGCGCCAGGAUAAGUAUAAGAACAAUUAGUCAUACGGAGAAUUGAGCGAGUUUG
B2: GS3319 (nucleic acid)
sense: GUGUUGAGACCUAAGAGCCUAUGAGUGAGUCACAUUACAACAGAAAGCCUCAAGUCUAAAGUCAUAACCUAUUAAAAUUCGAAAGCACAAAAACAUCCAUUAGGAACUGACUAAGUACAAGAGCUACUCCAUAAAAAUCAGUCGCAAUACAUGUUUUUGCAAAGCAGAUCAACCUGGUUAAGACGAGAAAUAACUUAGUAUUCAACGUAGCUAAAUCUCCAGGGUGUUAGUGUAGUAUAUUGACGUUUCCGAAAUAAUUAAAACCAGCAUCUUAGUUUGGUGUUAUUUGAUAUAUAUGAUAAGAUUCGUUUAGGAUUUAUUGGAAUUUAUUUGGCUGGUAUCUAAUGUAGAUUUGAUUGAUACCGUAUUAUCAAAUCAUUUUAU
antisense: AUAAAAUGAUUUGAUAAUACGGUAUCAAUCAAAUCUACAUUAGAUACCAGCCAAAUAAAUUCCAAUAAAUCCUAAACGAAUCUUAUCAUAUAUAUCAAAUAACACCAAACUAAGAUGCUGGUUUUAAUUAUUUCGGAAACGUCAAUAUACUACACUAACACCCUGGAGAUUUAGCUACGUUGAAUACUAAGUUAUUUCUCGUCUUAACCAGGUUGAUCUGCUUUGCAAAAACAUGUAUUGCGACUGAUUUUUAUGGAGUAGCUCUUGUACUUAGUCAGUUCCUAAUGGAUGUUUUUGUGCUUUCGAAUUUUAAUAGGUUAUGACUUUAGACUUGAGGCUUUCUGUUGUAAUGUGACUCACUCAUAGGCUCUUAGGUCUCAACAC
B3: GS3323 (nucleic acid)
sense: AGGCGUGGACUGUAGCCUCAAUAGCAUACACUGAAUCGAAUGAGUUGUCAGGAAAUGACAUUUGCAUAAAGUCACCCUUAACAAAGCUUAAUUGGUUUGAUAAGCCUUCUUUCUGUGCAUAUCUCGUGGCCCGCUCUAUUUGGUAAUCAUUGUUGUUCAAGCCAGUAAUAUGAGCGCCAGUAAACUUGGCGAUUUCUCUUGCCGGACCACCAACACCACAUCCGACAUCAAGUACUUUGUCUGCCUCAUUAAUGCCUAUCUUAGCGGCAAGAUAAUGUUCAUGUCGCGCAAUCGCUUGGUAAAAUGGUUCACCGUAAGCAAAUCUACAGAAGUGAAAAGAUUGUCCCCAGCCGUAUUCGUAAAGAUCGGUGCCGAGAUUAUAGUACUGUCUUGUCAAA
antisense: UUUGACAAGACAGUACUAUAAUCUCGGCACCGAUCUUUACGAAUACGGCUGGGGACAAUCUUUUCACUUCUGUAGAUUUGCUUACGGUGAACCAUUUUACCAAGCGAUUGCGCGACAUGAACAUUAUCUUGCCGCUAAGAUAGGCAUUAAUGAGGCAGACAAAGUACUUGAUGUCGGAUGUGGUGUUGGUGGUCCGGCAAGAGAAAUCGCCAAGUUUACUGGCGCUCAUAUUACUGGCUUGAACAACAAUGAUUACCAAAUAGAGCGGGCCACGAGAUAUGCACAGAAAGAAGGCUUAUCAAACCAAUUAAGCUUUGUUAAGGGUGACUUUAUGCAAAUGUCAUUUCCUGACAACUCAUUCGAUUCAGUGUAUGCUAUUGAGGCUACAGUCCACGCCU
B4: GS3333 (nucleic acid)
sense: AUAAAAGACUAAUAUGAUCUAAUUUAAAUCGAACUGAUUGAAAAACAUUUGAUUUGCAAUGAAAAUUAAUAUAUAAUCAAAUAAAAUCAAAUAUUUCUCACUCUGGUGCCGGCCCGUUGUGGUAGGAAGUGACCCAACUCUUAAAUCAGGUCAGCAACAUUCAUAGGCAUCUCUUCAAUUUGAGUGCUAUAAAACUGCUCAAUUUCACGCAUCAUCCGAACAUCAUCAGCUGUUACAAAGUUGAUCGCAACACCUUUUCGUCCAAAUCGACCACCUCGACCAAUUCUGUGAAUAUAAUUCUCACGAUUAGCAGGCAAGUCGUAAUUAAUAACUAAUGAAACUUGUUGUACAUCAAUACCACGAGCAAGAAGAUCAGUGGCAAUUAAAACACGGGAUGA
antisense: UCAUCCCGUGUUUUAAUUGCCACUGAUCUUCUUGCUCGUGGUAUUGAUGUACAACAAGUUUCAUUAGUUAUUAAUUACGACUUGCCUGCUAAUCGUGAGAAUUAUAUUCACAGAAUUGGUCGAGGUGGUCGAUUUGGACGAAAAGGUGUUGCGAUCAACUUUGUAACAGCUGAUGAUGUUCGGAUGAUGCGUGAAAUUGAGCAGUUUUAUAGCACUCAAAUUGAAGAGAUGCCUAUGAAUGUUGCUGACCUGAUUUAAGAGUUGGGUCACUUCCUACCACAACGGGCCGGCACCAGAGUGAGAAAUAUUUGAUUUUAUUUGAUUAUAUAUUAAUUUUCAUUGCAAAUCAAAUGUUUUUCAAUCAGUUCGAUUUAAAUUAGAUCAUAUUAGUCUUUUAU
B5: GS3317 (nucleic acid)
sense: CAGGACUGUCCAGUUAGAUCUAGAGUCAAAAUGCCCAAAUCAUCCAAAAAGUAAGGUGGUAUAAGAAGAAGCUUAACGUUUAUAGACGUAACUGAAUCUCGGAAGAACAGCUCUUUCCUAGCAAGCAAGUAGUUGUGAAAUUACCUGCUCCUAGGUUUAUUUUUUAUUUUCAGGUGGAAUAUUGAUGAUCGCUGGAUCCACAAAAUGUAAAUUAAAAAAAUAAAAACAAAUAUCUGGUGACUGAAGGAUUUCAUGUAGUGACUAAACGUCAGUACAAGUCACAGAGUACUGAUCAAAACUACAGAAUUAUAUCUCGACGUCUUCCCUGAAGAUGAUAAAAGAUUCACCCACAACAUAAAGCUUUCAUUAUAUAU
antisense: AUAUAUAAUGAAAGCUUUAUGUUGUGGGUGAAUCUUUUAUCAUCUUCAGGGAAGACGUCGAGAUAUAAUUCUGUAGUUUUGAUCAGUACUCUGUGACUUGUACUGACGUUUAGUCACUACAUGAAAUCCUUCAGUCACCAGAUAUUUGUUUUUAUUUUUUUAAUUUACAUUUUGUGGAUCCAGCGAUCAUCAAUAUUCCACCUGAAAAUAAAAAAUAAACCUAGGAGCAGGUAAUUUCACAACUACUUGCUUGCUAGGAAAGAGCUGUUCUUCCGAGAUUCAGUUACGUCUAUAAACGUUAAGCUUCUUCUUAUACCACCUUACUUUUUGGAUGAUUUGGGCAUUUUGACUCUAGAUCUAACUGGACAGUCCUG
B6: GS3320 (nucleic acid)
sense: UUAUCAUGCUGCCAUGGUUCAUAAGAAAAAAAUUUACUAAGAUUAGUAGGGAUGCAUAGACCUAAUGACACGCCCAUAAAAGUUGUAUGGCUAUCCCAACCAUGUUCAGAAAGUAUCUCGAGACCAUGAAUGCUUCUAGAAAUAAGGCCAAGUACGAAAAAUGCGGUUCCUCUCAUGCUCAUUAUUUCAUGCGAUUCUGCAAUUUUAAUUAUGUUCUGCACGACAUCUGAUUUUUCAAGAAAAGGAGCACCCAAUUCCAUAGAUCCAACGUUACCUACAGCCCAUAGGCAUCCUUUAACCUUAAGAAUAAUCUCUAAAUCAUCAUAAUGCAUUCCAUAUUCACGAAUGGUUGAGGCAAAUUCAUCAAAAUGACCUUUAUCAUGCAAGAGCUU
antisense: AAGCUCUUGCAUGAUAAAGGUCAUUUUGAUGAAUUUGCCUCAACCAUUCGUGAAUAUGGAAUGCAUUAUGAUGAUUUAGAGAUUAUUCUUAAGGUUAAAGGAUGCCUAUGGGCUGUAGGUAACGUUGGAUCUAUGGAAUUGGGUGCUCCUUUUCUUGAAAAAUCAGAUGUCGUGCAGAACAUAAUUAAAAUUGCAGAAUCGCAUGAAAUAAUGAGCAUGAGAGGAACCGCAUUUUUCGUACUUGGCCUUAUUUCUAGAAGCAUUCAUGGUCUCGAGAUACUUUCUGAACAUGGUUGGGAUAGCCAUACAACUUUUAUGGGCGUGUCAUUAGGUCUAUGCAUCCCUACUAAUCUUAGUAAAUUUUUUUCUUAUGAACCAUGGCAGCAUGAUAA
B7: ES53: dsRNA trigger SEQ ID NO 114; gene target Hypotethicai effector (nucleic acid)
DNA: ACGATTATCGCCAATTGGGGTGATACTGTTGTAGTACATGTTACTAATTCATTAATGAATAATGGAACGAGCATTCATTTTCATGGACTCCGGCAATTCGAAACAAACCAAATGGATGGTCCAACATCAATAACACAGTGTCCCATAGCTCCCGGTGATAGTTTTACATATAGATGGGTTGCCTCTCAGTACGGAAGTTCATGGTACCATGCTCATTTCGCCGTAC
B8: GS1796: dsRNA trigger SEQ ID NO 211; gene target Putative aldehyde dehydrogenase-like protein C922.07c (nucleic acid)
DNA: TACCCATCCCTGGCTTAAGTATTGATTTATACATTCTAAAAGAGAGTTCGACGCATATTATGATCTACATACGGAAGTTTGGTAGGATGACGAAAACTCCTAACTTTTAAATTGAAAATTCACCAATCTGACAACATATCTATCTTATTATTGTTGCCCTAATCACTGCCTTTAATGAAGGAATAAAAAATTAAAAGATGCCCGTCACTGACTAACGCTTTTTTTTTAATTAGCCAAATTATCAGTTAACTGCAAACCAGCTACAGCGAGACGGTTTAAGCTCCCATATTTACAAAAACTGACTTGATTTGAGTGTAACCAGCTAGACCAGCTTCTCCTAGCTCCCGTCCAATTCCACTCTGTTTTACACCACCAAATGGGACCTTAAAACTTGAATCATTACTTGAATTAATCCATACCATGCCTGATTCAATTTTTCGCGCTACCCGATGAGCCCTCGTAATATCCTTGGTAAATACTGCACTACCAAGGCCATAGGTAGTATCATTTGCTATCTTTAGGGCTTCTTCTTCTGTTTTAAAGCTATTTATGACAACAAAAGGGCCGAAGACTTCTTCACGAAATATTTTCATAGATG

Tested on: E. necator
Assay: Leaf disc assay, dry inoculum (settling tower), decrease in disease severity / hyphal growth (Example 2)
Details: decrease in disease severity (hyphal growth) relative to untreated control, value ± SE; for % decrease =/− SE TP1: time point 1 (untreated control hyphal growth ≥50%); for % decrease =/− SE TP2: time point 2

Row | Molecule | % decrease =/− SE TP1 [%] | % decrease =/− SE TP2 [%]
1 | B1 | 12 ± 7 | 14 ± 7
2 | B2 | 23 ± 8 | 25 ± 7
3 | B3 | 26 ± 7 | 19 ± 7
4 | B4 | 5 ± 6 | 
5 | B5 | 21 ± 9 | 17 ± 9
6 | B6 | 20 ± 8 | 5 ± 8
7 | B7 | 4 ± 1 | 
8 | B8 |  | 1 ± 8
